# According to patent publication US20260055369A1, “METHOD FOR GENERATING CELLS OF THE T CELL LINEAGE WITH ENGINEERING BROADLY REACTIVE HUMAN NOTCH LIGAND” (H. Lee Moffitt Cancer Center and Research Institute, Inc., priority 2022, published 2026):
# T1: Notch2 (EGF6-13) (Homo sapiens, UniProt Q04721)
# T1 construct: hNotch2 (EGF6-13, residues 221-530); gp67 signal peptide (N); made in house; host or cells: HiFive Trichoplusia ni insect cells (baculovirus)
# T1 sequence (Q04721 221-530): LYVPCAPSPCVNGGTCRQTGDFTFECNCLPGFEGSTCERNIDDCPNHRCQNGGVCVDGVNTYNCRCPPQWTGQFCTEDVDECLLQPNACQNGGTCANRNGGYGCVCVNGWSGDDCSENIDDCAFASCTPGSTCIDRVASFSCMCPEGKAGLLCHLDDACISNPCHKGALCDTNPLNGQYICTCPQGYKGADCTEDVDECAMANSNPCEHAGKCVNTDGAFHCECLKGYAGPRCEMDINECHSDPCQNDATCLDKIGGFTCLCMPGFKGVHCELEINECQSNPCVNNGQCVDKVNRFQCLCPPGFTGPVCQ
# T2: Notch3 (EGF5-12) (Homo sapiens, UniProt Q9UM47)
# T2 construct: hNotch3 (EGF5-12, residues 197-505); gp67 signal peptide (N); made in house; host or cells: HiFive Trichoplusia ni insect cells (baculovirus)
# T2 sequence (Q9UM47 197-505): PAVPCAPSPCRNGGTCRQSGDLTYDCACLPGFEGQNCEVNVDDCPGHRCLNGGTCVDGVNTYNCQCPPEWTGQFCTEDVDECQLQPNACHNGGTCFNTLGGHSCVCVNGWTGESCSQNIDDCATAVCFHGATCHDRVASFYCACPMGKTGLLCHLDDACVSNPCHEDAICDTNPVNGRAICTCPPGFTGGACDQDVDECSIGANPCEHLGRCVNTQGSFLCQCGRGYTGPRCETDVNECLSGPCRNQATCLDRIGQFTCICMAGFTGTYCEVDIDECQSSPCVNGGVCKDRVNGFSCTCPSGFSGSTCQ
# T3: mouse Notch1 (EGF6-13) (Mus musculus, UniProt Q01705)
# T3 construct: mouse Notch1 (EGF6-13, residues 221-526); gp67 signal peptide (N); made in house; host or cells: HiFive Trichoplusia ni insect cells (baculovirus)
# T3 sequence (Q01705 221-526): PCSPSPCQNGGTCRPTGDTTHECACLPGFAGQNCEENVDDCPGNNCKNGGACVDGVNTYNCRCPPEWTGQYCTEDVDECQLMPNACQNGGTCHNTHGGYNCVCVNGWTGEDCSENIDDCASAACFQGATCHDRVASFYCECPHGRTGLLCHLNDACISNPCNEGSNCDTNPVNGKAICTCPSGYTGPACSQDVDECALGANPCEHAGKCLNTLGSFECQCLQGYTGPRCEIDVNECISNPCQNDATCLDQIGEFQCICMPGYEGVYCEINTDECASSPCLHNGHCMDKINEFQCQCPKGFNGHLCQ
# T4: Notch4 (7-12) (Homo sapiens, UniProt Q99466)
# T4 construct: hNotch4 (EGF7-12, residues 276-511); gp67 signal peptide (N); made in house; host or cells: HiFive Trichoplusia ni insect cells (baculovirus)
# T4 sequence (Q99466 276-511): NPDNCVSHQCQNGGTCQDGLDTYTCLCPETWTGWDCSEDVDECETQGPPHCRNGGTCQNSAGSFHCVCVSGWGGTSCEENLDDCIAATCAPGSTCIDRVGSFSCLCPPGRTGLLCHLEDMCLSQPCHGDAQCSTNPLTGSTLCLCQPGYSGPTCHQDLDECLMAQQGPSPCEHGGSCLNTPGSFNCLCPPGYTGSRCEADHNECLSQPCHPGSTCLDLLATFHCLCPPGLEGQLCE
# B1: Delta^MAX: engineered human DLL4 consensus variant with 10 mutations combining DLL4.v1 and DLL4.v2 mutations; sequence matches SEQ ID NO: 4/10 (protein)
# chain: SSVFQLQLQEFINERGVLASGRPCEPGCRTFFRVCLKHFQAVVSPGPCTFGTVSTPVLGTNSFAVRDDSSGGGRNPLQLPLNFTWPGTFSLIIEAWHAPGDDLRPEALPPDALISKFAIQGSLAVGQNWLLDEQTSTLTRLRYSYRVICSDNYYGDNCSRLCKKRNDYFGHYVCQPDGNPSCLPGWTGEYCQQPICLSGCHEQNGYCSKPAECLCRPGWQGRLCNECIPHPGCRHGTCSTPWQCLCDEGWGGLYCDQDLNYCTHHSPCKNGATCRNSGPRSYTCTCRPGYTGVDCELELSECDSNPCRNGGSCKDQEDGYHCLCPPGYYGLHCEHSTLSCADSPCFNGGSCRERNQGANYACECPPNFTGSNCE
# What was measured:
# [1] = test system: full-length, cell surface-expressed Notch1; assay: Tetramer binding to Notch1 overexpressing CHO-K1 N1-Gal4 cells by flow cytometry; conditions: tetramers
# Description: Extended Data FIG. 5. Quantitation of mNotch1 binding to DLL4 variants, ligand adsorption, and Notch surface expression. a, SPR binding isotherms were fitted to a 1:1 binding model to determine the binding affinity between mNotch1 (6-13) and each DLL4 variant. b, Determination of plate adsorption for WT DLL4 and Delta^MAX by ELISA. Data represent mean values±s.d. of three biological replicates. c, Binding assay of WT DLL4 and Delta^MAX tetramers to Notch1 overexpressing CHO-K1 N1-Gal4 cells was measured by flow cytometry. Data represent mean values±s.d. of three biological replicates. d, The level of Notch1 expression on the surface of cell lines used in this study was determined by flow cytometry. Data represent mean values±s.d. of three biological replicates. e, Percentage of CD8^+ T cells expressing Notch1 (upper graph) and Notch2 (bottom graph) on cell surface determined by flow cytometry after stimulation with K32-WT DLL4, K32-Delta^MAX, or K32 for 96 hours. Data represent mean values±s.e.m. of three biological replicates. Delta^MAX statistics are referred to WT DLL4. *P<0.05, ****P<0.0001 (Two-way ANOVA).
# Notch2 (EGF6-13) = target: T1, Notch2 (EGF6-13); assay: SPR determination of equilibrium dissociation constants; format: binding
# Protocol: (§1) Equilibrium dissociation constants were determined by surface plasmon resonance using a Biacore T200 instrument (GE Healthcare). Approximately 100 resonance units (RU) of biotinylated Notch extracellular fragments (Notch1 (EGF6-13), Notch2 (EGF6-13), Notch3 (EGF5-12), Notch4 (7-12), and mouse Notch1 (EGF6-13)) were immobilized on individual flow cells at 5 μl/min using a streptavidin-coated sensor chip (Series S Sensor chip SA, GE Healthcare). Three-fold serial dilutions of recombinant DLL4 proteins (N-EGF5) starting at 50 μM (WT DLL4), 18 μM (DLL4.v2), and 6 μM (DLL4.v1 and Delta^MAX) were flowed over the chip at 25° C. in SPR buffer (20 mM HEPES pH 7.4, 150 mM NaCl, 1 mM calcium chloride, 0.1% BSA supplemented with 0.005% surfactant P20). Association (“on-rate”) and dissociation (“off-rate”) phases were performed at 10 μl/min for 120 seconds and 300 seconds, respectively. The sensor chip was regenerated after each injection with 30-second washes of 2.25M Magnesium Chloride containing 25% Ethylene Glycol at 50 μL/min. Data collection rate was performed at 10 Hz, and curves were reference-subtracted from a flow cell containing 100 RU of a negative control non-related protein (biotinylated mouse RNF43 PA domain). The maximum RU for each experiment was normalized to a value of 100% and plotted as a function of concentration using Prism 9 software (GraphPad). Steady-state binding and kinetic curves were fitted using the Biacore T200 evaluation software to a 1:1 Langmuir model to determine the KD values.
# Notch3 (EGF5-12) = target: T2, Notch3 (EGF5-12); assay: as above; format: binding
# Protocol: as §1
# mouse Notch1 (EGF6-13) = target: T3, mouse Notch1 (EGF6-13); assay: as above; format: binding; conditions: mNotch1 EGF6-13; read-out: dissociation constant (KD)
# Protocol: as §1
# Notch4 (7-12) = target: T4, Notch4 (7-12); assay: as above; format: binding
# Protocol: as §1
# [2] = SPR, 25° C., ligand N-EGF5, read-out: dissociation constant (KD)
# Chain of full-length, cell surface-expressed Notch1 (P46531 19-1664 limits assumed): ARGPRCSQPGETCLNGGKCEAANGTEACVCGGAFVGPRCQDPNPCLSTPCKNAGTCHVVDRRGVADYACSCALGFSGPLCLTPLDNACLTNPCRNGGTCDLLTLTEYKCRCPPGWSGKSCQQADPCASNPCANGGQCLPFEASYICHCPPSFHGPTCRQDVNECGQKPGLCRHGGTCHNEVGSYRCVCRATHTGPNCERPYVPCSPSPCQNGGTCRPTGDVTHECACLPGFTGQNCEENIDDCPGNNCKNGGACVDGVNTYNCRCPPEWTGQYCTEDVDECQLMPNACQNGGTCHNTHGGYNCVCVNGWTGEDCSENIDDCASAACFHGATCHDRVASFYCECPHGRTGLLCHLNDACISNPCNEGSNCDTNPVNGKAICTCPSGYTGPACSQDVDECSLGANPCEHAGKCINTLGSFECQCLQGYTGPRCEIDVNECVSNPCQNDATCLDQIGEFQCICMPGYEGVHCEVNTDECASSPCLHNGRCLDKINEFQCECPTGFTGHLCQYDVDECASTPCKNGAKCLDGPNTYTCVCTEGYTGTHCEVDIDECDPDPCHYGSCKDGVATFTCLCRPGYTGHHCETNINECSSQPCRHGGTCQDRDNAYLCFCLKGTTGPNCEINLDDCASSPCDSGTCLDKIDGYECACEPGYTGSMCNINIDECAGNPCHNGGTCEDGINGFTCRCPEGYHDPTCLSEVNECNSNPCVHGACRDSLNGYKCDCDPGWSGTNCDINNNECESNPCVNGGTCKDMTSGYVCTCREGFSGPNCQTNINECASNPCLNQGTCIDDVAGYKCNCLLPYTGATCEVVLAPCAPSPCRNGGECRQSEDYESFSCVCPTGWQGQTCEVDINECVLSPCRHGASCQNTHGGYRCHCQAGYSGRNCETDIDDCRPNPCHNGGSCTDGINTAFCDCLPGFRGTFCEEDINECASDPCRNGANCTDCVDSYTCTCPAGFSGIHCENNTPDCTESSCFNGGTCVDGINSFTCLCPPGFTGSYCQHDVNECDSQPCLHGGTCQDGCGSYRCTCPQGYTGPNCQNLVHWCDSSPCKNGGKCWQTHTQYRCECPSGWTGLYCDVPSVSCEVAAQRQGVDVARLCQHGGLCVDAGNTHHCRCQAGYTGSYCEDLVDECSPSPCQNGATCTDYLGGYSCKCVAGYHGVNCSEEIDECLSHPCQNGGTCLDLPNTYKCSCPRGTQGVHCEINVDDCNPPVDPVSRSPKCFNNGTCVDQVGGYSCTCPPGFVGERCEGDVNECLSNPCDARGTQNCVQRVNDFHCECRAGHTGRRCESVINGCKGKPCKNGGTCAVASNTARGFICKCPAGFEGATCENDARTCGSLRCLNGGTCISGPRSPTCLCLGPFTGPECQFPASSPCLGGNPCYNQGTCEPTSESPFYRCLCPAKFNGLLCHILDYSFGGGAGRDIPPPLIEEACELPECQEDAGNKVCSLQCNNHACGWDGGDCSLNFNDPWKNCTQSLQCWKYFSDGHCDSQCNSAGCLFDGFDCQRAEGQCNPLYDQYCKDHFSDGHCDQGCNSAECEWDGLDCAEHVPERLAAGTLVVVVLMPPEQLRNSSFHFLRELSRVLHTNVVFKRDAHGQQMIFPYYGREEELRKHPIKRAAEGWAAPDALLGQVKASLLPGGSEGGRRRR
# Chain of full-length, cell surface-expressed Notch1 (P46531 1665-1756 limits assumed): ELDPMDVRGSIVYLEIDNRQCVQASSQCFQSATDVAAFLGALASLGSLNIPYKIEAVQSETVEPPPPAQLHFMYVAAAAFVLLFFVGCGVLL
molecule,measurement,setting,value
B1,increase of mean fluorescence intensity (MFI) of binding compared to WT DLL4,[1],4.7 fold
same,enhancement of affinity compared to WT DLL4,Notch2 (EGF6-13); Notch2,670 fold
same,Kd,Notch2 (EGF6-13); [2],54 nM
same,enhancement of affinity compared to WT DLL4,Notch3 (EGF5-12); Notch3,591 fold
same,Kd,Notch3 (EGF5-12); [2],49 nM
same,Kd,mouse Notch1 (EGF6-13),25 nM
same,enhancement of affinity compared to WT DLL4,Notch4 (7-12),532 fold
